From patent publication US20070059820A1

B1: DC101 antibody expressed from CHO-S cells infected with Lenti-DC101-furin/2A14 (clone 7x-24) (antibody, from another filing, V domains shown)
VH: EVQLVETGGGLVQPGNSLKLSCATSGFIFSTTWMNWIRQTPGKRLEWLAQIEDKSNNYFISYSESVKGRFTISRDDSKSSVYLQMNNLKEEDTAIYYCSWKYRSNYYFDYWGQGVMVTVSS
VL: DIVLTQSPALAVSLEQRATISCKTSQNVDYYGISYLHWYQQKPGQQPKLLIYEGSNLASGIPARFSGSGSGTDFTLTIDPVEADDIVTYYCQQSKDYPYTFGAGTKLELKR

Legend:
recombinant Flk-1 [1] = biological target: recombinant Flk-1 (UniProt P35918); test: ELISA on coated recombinant Flk-1, anti-rat IgG1 HRP; antibody at 4 ng/ml
recombinant Flk-1 [2] = biological target: recombinant Flk-1 (UniProt P35918); test: ELISA on coated recombinant Flk-1, anti-rat IgG1 HRP; antibody at 12 ng/ml
recombinant Flk-1 [3] = biological target: recombinant Flk-1 (UniProt P35918); test: ELISA on coated recombinant Flk-1, anti-rat IgG1 HRP; antibody at 37 ng/ml
recombinant Flk-1 [4] = biological target: recombinant Flk-1 (UniProt P35918); test: ELISA on coated recombinant Flk-1, anti-rat IgG1 HRP; antibody at 111 ng/ml
recombinant Flk-1 [5] = biological target: recombinant Flk-1 (UniProt P35918); test: ELISA on coated recombinant Flk-1, anti-rat IgG1 HRP; antibody at 333 ng/ml
recombinant Flk-1 [6] = biological target: recombinant Flk-1 (UniProt P35918); test: ELISA on coated recombinant Flk-1, anti-rat IgG1 HRP; antibody at 1000 ng/ml
recombinant Flk-1 [7] = biological target: recombinant Flk-1 (UniProt P35918); test: ELISA on coated recombinant Flk-1, anti-rat IgG1 HRP; antibody at 0 ng/ml (background)
recombinant Flk-1 [8] = biological target: recombinant Flk-1 (UniProt P35918); test: competition ELISA: antibody mixed with Flk-1, added to coated human VEGF, anti-Flk-1-HRP; antibody at 4 ng/ml
recombinant Flk-1 [9] = biological target: recombinant Flk-1 (UniProt P35918); test: competition ELISA: antibody mixed with Flk-1, added to coated human VEGF, anti-Flk-1-HRP; antibody at 12 ng/ml
recombinant Flk-1 [10] = biological target: recombinant Flk-1 (UniProt P35918); test: competition ELISA: antibody mixed with Flk-1, added to coated human VEGF, anti-Flk-1-HRP; antibody at 37 ng/ml
recombinant Flk-1 [11] = biological target: recombinant Flk-1 (UniProt P35918); test: competition ELISA: antibody mixed with Flk-1, added to coated human VEGF, anti-Flk-1-HRP; antibody at 111 ng/ml
recombinant Flk-1 [12] = biological target: recombinant Flk-1 (UniProt P35918); test: competition ELISA: antibody mixed with Flk-1, added to coated human VEGF, anti-Flk-1-HRP; antibody at 333 ng/ml
recombinant Flk-1 [13] = biological target: recombinant Flk-1 (UniProt P35918); test: competition ELISA: antibody mixed with Flk-1, added to coated human VEGF, anti-Flk-1-HRP; antibody at 1000 ng/ml
recombinant Flk-1 [14] = biological target: recombinant Flk-1 (UniProt P35918); test: competition ELISA: antibody mixed with Flk-1, added to coated human VEGF, anti-Flk-1-HRP; antibody at 0 ng/ml (no inhibitor)

Sequence of UniProt P35918 (P35918 20-762 limits assumed): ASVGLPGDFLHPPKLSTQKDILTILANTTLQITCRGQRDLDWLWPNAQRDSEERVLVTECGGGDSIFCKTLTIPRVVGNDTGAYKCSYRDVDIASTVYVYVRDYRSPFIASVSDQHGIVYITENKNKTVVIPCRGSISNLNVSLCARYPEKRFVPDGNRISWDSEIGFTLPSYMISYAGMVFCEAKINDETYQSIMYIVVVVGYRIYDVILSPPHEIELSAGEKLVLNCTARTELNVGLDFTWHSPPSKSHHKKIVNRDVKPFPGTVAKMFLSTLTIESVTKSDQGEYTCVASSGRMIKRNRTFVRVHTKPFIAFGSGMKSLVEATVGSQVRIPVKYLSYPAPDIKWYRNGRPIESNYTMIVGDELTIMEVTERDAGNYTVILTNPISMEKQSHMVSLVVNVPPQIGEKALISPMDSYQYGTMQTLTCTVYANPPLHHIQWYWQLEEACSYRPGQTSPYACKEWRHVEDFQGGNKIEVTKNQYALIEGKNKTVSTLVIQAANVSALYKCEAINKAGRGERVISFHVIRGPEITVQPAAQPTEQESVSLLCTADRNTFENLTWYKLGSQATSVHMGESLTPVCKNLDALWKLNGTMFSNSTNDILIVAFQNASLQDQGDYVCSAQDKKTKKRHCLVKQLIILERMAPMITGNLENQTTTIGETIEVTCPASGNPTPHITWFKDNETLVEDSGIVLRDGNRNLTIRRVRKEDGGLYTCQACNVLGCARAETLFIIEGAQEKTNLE

Row | Molecule | ELISA signal (name and unit not given) (recombinant Flk-1 [1]) | ELISA signal (name and unit not given) (recombinant Flk-1 [2]) | ELISA signal (name and unit not given) (recombinant Flk-1 [3]) | ELISA signal (name and unit not given) (recombinant Flk-1 [4]) | ELISA signal (name and unit not given) (recombinant Flk-1 [5]) | ELISA signal (name and unit not given) (recombinant Flk-1 [6]) | ELISA signal (name and unit not given) (recombinant Flk-1 [7]) | signal of Flk-1 bound to coated VEGF (name and unit not given) (recombinant Flk-1 [8]) | signal of Flk-1 bound to coated VEGF (name and unit not given) (recombinant Flk-1 [9]) | signal of Flk-1 bound to coated VEGF (name and unit not given) (recombinant Flk-1 [10]) | signal of Flk-1 bound to coated VEGF (name and unit not given) (recombinant Flk-1 [11]) | signal of Flk-1 bound to coated VEGF (name and unit not given) (recombinant Flk-1 [12]) | signal of Flk-1 bound to coated VEGF (name and unit not given) (recombinant Flk-1 [13]) | signal of Flk-1 bound to coated VEGF (name and unit not given) (recombinant Flk-1 [14])
1 | DC101 antibody produced by a hybridoma | 0.312 | 0.403 | 0.585 | 0.724 | 0.894 | 1.12 | 0.117 | 0.992 | 0.931 | 0.834 | 0.635 | 0.357 | 0.193 | 1.1
2 | B1 | 0.274 | 0.412 | 0.486 | 0.616 | 0.993 | 1.14 | 0.129 | 1.04 | 0.945 | 0.826 | 0.43 | 0.237 | 0.184 | 1.07
